Consider 2 substances from patent US7081343.

For the series, the target named is T7-RelA (UniProt Q04206).
T7-RelA, sequence (Q04206 whole entry): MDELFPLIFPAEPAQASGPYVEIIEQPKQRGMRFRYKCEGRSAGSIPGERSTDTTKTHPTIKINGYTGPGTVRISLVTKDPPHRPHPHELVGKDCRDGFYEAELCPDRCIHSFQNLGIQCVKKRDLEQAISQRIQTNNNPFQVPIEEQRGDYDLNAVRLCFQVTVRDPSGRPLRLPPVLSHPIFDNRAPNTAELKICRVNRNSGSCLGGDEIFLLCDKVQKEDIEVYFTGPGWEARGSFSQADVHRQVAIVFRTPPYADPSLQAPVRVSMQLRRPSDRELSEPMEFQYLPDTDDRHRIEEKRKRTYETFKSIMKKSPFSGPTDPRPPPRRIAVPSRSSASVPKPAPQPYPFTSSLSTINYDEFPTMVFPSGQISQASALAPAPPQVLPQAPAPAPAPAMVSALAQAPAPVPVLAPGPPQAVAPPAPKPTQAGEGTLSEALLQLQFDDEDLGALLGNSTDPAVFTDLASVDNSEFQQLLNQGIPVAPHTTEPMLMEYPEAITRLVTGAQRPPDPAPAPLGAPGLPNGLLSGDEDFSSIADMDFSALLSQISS

For CBP, the “acetylation of T7-RelA (anti-T7 immunoprecipitation, anti-acetylated lysine blot)” value is “Co-expression of either p300 or CBP with RelA produced dose related acetylation of T7-Rel A”.

For p300, the “acetylation of T7-RelA (anti-T7 immunoprecipitation, anti-acetylated lysine blot)” value is listed as “Co-expression of either p300 or CBP with RelA produced dose related acetylation of T7-Rel A”.
